Measured values: the DeepSol protein solubility set

Experiment: soluble on expression in E. coli; label from the status in PepcDB or PDB records
With “MSLRYTKEQCTAAEAQRLAQEIAFGPVVFQVSRLMLKFGIFQLLSGKREGYTLQEISGRTGLTRYAAQVLLEASLTIGTILLEEDRYVLAKAGWFLLNDKMARVNMEFNHDVNYQGLFHLEEALLNGRPEGLKVFGEWPTIYEGLSQLPEQVQKSWFGFDHFYSDQSFGKALEIVFSHHPKRLLDIGGNTGKWATQCVQYNKEVEVTIVDLPQQLEMMRKQTAGLSGSERIHGHGANLLDRDVPFPTGFDAVWMSQFLDCFSEEEVISILTRVAQSIGKDSKVYIMETLWDRQRYETASYCLTQISLYFTAMANGNSKMFHSDDLIRCIENAGLEVEEIQDNIGLGHSILQCRLKEGHHHHHH” the “soluble on expression in E. coli” value was “soluble”. In the case of “MSLSAGLRFTLEVDGLPPDAFAVVSFHLNQSFSSLFSLDLSLVSQQFLSLEFAQVLDKMAYLTVWQGDDVQRRVKGVVTWFELGENDKNQMLYSMKVCPPLWRTGLRQNFRIFQNEDIESILATILKENGVTEWSPLFSEPHPSREFCVQYGETDYDFLCRMAAEEGIFFYEEHAQKSTDQSLVLCDTVRYLPESFEIPWNPNTRTEVSTLCISQFLYSAQIRPSSVVTKDYTFKRPGWAGRFDQEGQHQDYQRTQYEVYDYPGRFKGAHGQNFACWQMDGWRNNAEVARGTSRSPEIWPGRRIALTGHPQANLNREWQVVASELHGEQPQAVPGRRGSGTTLNNHFAVIPADRTWRPQPLLKPLVDGPQSAVVTGPAGEEIFCDEHGRVRVKFNWDRYNPSNQDSSCWIRVAQAWAGTGFGNLAIPRVGQEVIVDFLNGDPDQPIIMGRTEGHHHHHH”, the “soluble on expression in E. coli” value is reported as “not soluble”. For “MSLSAPLGENMSNLTSEERHARLRQIYIEKERRQRLGSRMGLSPLEEEANDRLMAIRQVDEEFYNLWRNYHSQPPPFLKHLNIIDTNLYAALKSMPKGGLLHVHDSGMLRMEILIDLIYRDNLWVCVNLEQDFEDFRFSRYFPHIPPAEDYQCNWMLMSNFFQLESRLEFENRLRKILTVRPEGYKSSSELVRHLRRHQRIIHGLITFRPIWSEFIFTMLSDFYADGVHYVELRSSLPNMYDLDGNNFTILETAEALVSVSNIFKNSFKDFIGIKLIYAPSRNLNDSRMDEYLENARLLKLHFPNFFAGFDLNTFGDECNLPLLENVTQLLRIGKNIDFYFHAGESRCPDSSRPDANLLEALLLQSKRIGNAVNLPFHPEIMKVMKRLSIAVEICPLSNHYLQYFNDFRQHPAAYLIAAGFPIVIGSDYPCFWNSAPLTDDFYVAFVGVISGWGDLRLLKQFALNSFLFSSLSETEKNMAVSKWQCSWNRWVRNLVNSSGYEGHHHHHH”, the “soluble on expression in E. coli” value was “not soluble”. For “MSLSCLFLQSAGEMLQNCAQSNCRIIPKKLRDMKREEICRLLADKVNKLKNKENSLSELLPDVRLLYGETPFARTPVMYEPGIIILFSGHKIGYINERVFRYDANEYLLLTVPLPFECETYATSEVPLAGLRLNVDILQLQELLMDIGEDEHFQPSMAASGINSATLSEEILCAAERLLDVMERPLDARILGKQIIREILYYVLTGPCGGALLALVSRQTHFSLISRVLKRIENKYTENLSVEQLAAEANMSVSAFHHNFKSVTSTSPLQYLKNYRLHKARMMIIHDGMKASAAAMRVGYESASQFSREFKRYFGVTPGEDAARMRAMQGNEGHHHHHH”, the “soluble on expression in E. coli” value was “soluble”. For “MSLSDELAKLVVEVTSPDGNIKAKLVAGEQLTVAFRPGTYARYDERGLEHQLSRLAMLAWTGYRRGFFEAKGRAEDISAKDAEKEHLNHWDANTRRYNEEMAQIVARGKSSGNVIRAQAKGLAFWKVEIRDGTLASMDEATFCAECVSVLAAVQRDSKNQEILLKDFYFGLNIPKSWRKKNPLRIERGVMD”, the “soluble on expression in E. coli” value was “not soluble”. For “MSLSDLTIQKVESRILDVPLIRPHGFATTTSTEQHILLVSVHLENGVIGYGEGVVPGGPWWGGESVETMKALVDGYLAPVLIGRAVSELAGIMADLERVVARARYAKAAVDVAMHDAWARSLNVPVRDLLGGTVRDKVDVTWALGVLPLDVAVAEIEERIEEFGNRSFKLKMGAGDPAEDTRRVAELAREVGDRVSLRIDINARWDRRTALHYLPILAEAGVELFEQPTPADDLETLREITRRTNVSVMADESVWTPAEALAVVKAQAADVIALKTTKHGGLLESKKIAAIAEAGGLACHGATSLEGPIGTAASLQFAASTKAISYGTELFGPQLLKDTYIVQEFEYKDGQVAIPQGPGLGVDVDMDKVNFYTRKEGHHHHHH”, the “soluble on expression in E. coli” value was “soluble”. With “MSLSDRLTAFKELIQAGGAKRPADLIIKNGQLVNVMTAEIYPAEVAIYQGKIVAVDPDVSAYQGTETRVIDAKQQYIVPGLIDGHIHVECSKLSMTSFAEAVVPHGTTSIISGLDEYISVIGVDGLSEIFKEVDQLPMRVFWGAPFKTPYTIPASTIADNIDSTVQAQLQKRSDVYGVWETVREAVETLDEDTLKTLLNAQDNHVPVWGCAPMATGTKLNEYLMSGVRVDHESYDHQELLEKVRKGINVVIRESSVTHFLAENIRAITETNGQIARHVSFCTDDVNAMDIVNKGHLDHLVRLAIAAGVAPMTAIQMATINSAEAYRIDDQVGLIAPGRNADILLVSDLEAFEIKRVLAKGQPVATDGHINQSIERPVRPASLANTIIREAVQASDFEYHVAADASQVTVQTIASEGPFVRHAKTKTLTVEDGIVQIDPAKDVALISVLERFGKNGNQSLGFTSGWTLKKGAMASTAAPDDNNIIVMGVNPDDMALAVNTLIERDGGQVVVADGQILSFLPLPIAGIVSDVTPAELAVQEEGILKASQAIGSEVVDPMFYMTFLPITAIPDLAITDLGNVDCNELRLFDPILTIQEGHHHHHH” the “soluble on expression in E. coli” value was “soluble”. With “MSLSEELQQKLRDQLWEVANRLRGNMSASDFMYFTLGFIFYKYLSEKIEKYANNALADDDITFKELWETDDADAIELQEEAKNQCLENIGYFIEPQFLFSSVIEAIKRKENILPMLERSLKRIEDSTLGQDSEDDFGGLFSDIDLASPKLGKTADDKNTLVSNVLLALDDINFGLEASQEIDILGDAYEYMISQFAAGAGKKAGEFYTPQEVSRILAEIVAIGHQRLRNVYDPTCGSGSLLLRAASIGNAVDIYGQEKNPTTYNLARMNMLLHGIRFSNFKIENGDTLEWDAFGDTQFDAVVANPPFSAEWSAADKFNTDDRFSKAGRLAPRKTADYAFILHMIYHLNEGGTMACVAPHGVLFRGNAEGVIRRFLIEKKNYVDAIIGLPANIFYGTSIPTCILVFKKCRKEDDNILFIDASKEFEKVKTQNKLREQHIQKIVETYRDRKEIEKYSHLASLQEIAENDYNLNIPRYVDTFEEEEPIDIKAVMAEIKELEAKRAELDKEIEVYLKELGIVEEGHHHHHH” the “soluble on expression in E. coli” value was “soluble”. For “MSLSEGPKKAGVLGSPIAHSRSPQLHLAAYRALGLHDWTYERIECGAAELPVVVGGFGPEWVGVSVTMPGKFAALRFADERTARADLVGSANTLVRTPHGWRADNTDIDGVAGALGAAAGHALVLGSGGTAPAAVVGLAELGVTDITVVARNSDKAARLVDLGTRVGVATRFCAFDSGGLADAVAAAEVLVSTIPAEVAAGYAGTLAAIPVLLDAIYDPWPTPLAAAVGSAGGRVISGLQMLLHQAFAQVEQFTGLPAPREAMTCALAALDEGHHHHHH”, the “soluble on expression in E. coli” value was “soluble”. With “MSLSEKIIQLNEGIIKEELKNLVRSSVEETLNHLLDKEAEDLTNAAKYERTQERQGYRSGHYTRSLQTTSGEVTLRVPKLKGVPFETAIIERYRRRESSVEEALIEMYLAGVSVRRVEDITEALWGTKVSPGTISELNKKAYVHIENWRNRPLQDGKYPYVYVDGIYLKRNWGGEYENVSILVAIAVNQEGYREVIGAREGMKEDKASWKEFLQWLKGRGLDGVKLIVGDKCLGMLESVNEVFPEAKYQRCTVHFYRNIFSVTPRSKMKLVAKMLKAIHAQESKASAREKAKLVAEELKSMKLREAAKKLEDGIEETLTYMEFPYEHWTRIRTNNTIERLNREIRRRTRVVGTFPDGNSALMLVCARLRHVAGTQWGSKKYLNMKHLENMDSDEGHHHHHH” the “soluble on expression in E. coli” value was “soluble”. With “MSLSELAVTEAEKGQDMIRSAVGEIKITNASLACYSWPRAQPIQNGLHTYVNVNIAITKIETDIGITGYGIGRNNPGENAIRHQFLSTMIGKDPTATAAVWAQLWSPKLYGRRGQETKALSSIDMALWDIKGKIAGMPIWRLLGGYRNRIPTYVAGGYYAKGKGLKDLQQEMANHVERGARGVKMKVGAVDIAEDVERINAVRKALGPDIKLMIDANCAYTYFDAIRLAKRVEEFDIYWFEEPVQPDDYEGFTKLSRATSIPLATGENEYTKHGFRDLIATQAISFLQPDARYMGGVTEFMKVAAMAEAHGLVICPHGDQQAHIQLLGAIPNAHLLEFYPKELNPMFGSVYKHTPDLNEDGTVTIPDVPGMATEPNEKMLERYRVAEGHHHHHH” the “soluble on expression in E. coli” value was “soluble”.
